Experimental data published in ChEMBL document CHEMBL4229398, “Activities of recombinant human bleomycin hydrolase on bleomycins and engineered analogues revealing new opportunities to overcome bleomycin-induced pulmonary toxicity” (Bioorg Med Chem Lett, 2018).

Experiments:
Type in all cases: ADME
[1] = target: T1, Bleomycin hydrolase (Homo sapiens, UniProt Q13867); assay: Substrate activity at recombinant human N-terminal His6-tagged BLMH expressed in Escherichia coli BL21(DE3) assessed as Kcat to Km ratio measured after 1 hr by HPLC-based Michaelis-Menten plot analysis relative to BLM B2
T1 sequence (Q13867 whole entry): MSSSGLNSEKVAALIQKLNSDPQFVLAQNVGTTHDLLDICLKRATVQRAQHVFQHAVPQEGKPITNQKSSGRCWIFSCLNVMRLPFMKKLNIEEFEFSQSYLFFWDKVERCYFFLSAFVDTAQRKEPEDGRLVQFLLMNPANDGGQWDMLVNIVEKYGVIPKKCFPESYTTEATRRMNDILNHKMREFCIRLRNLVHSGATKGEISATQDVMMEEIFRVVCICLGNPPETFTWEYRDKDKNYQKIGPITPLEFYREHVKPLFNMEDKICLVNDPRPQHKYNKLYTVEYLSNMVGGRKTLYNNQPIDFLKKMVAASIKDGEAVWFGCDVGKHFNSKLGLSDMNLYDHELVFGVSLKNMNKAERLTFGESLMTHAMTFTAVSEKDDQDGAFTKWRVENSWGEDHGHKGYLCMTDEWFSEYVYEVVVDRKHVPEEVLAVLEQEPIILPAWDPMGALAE

[2] = target: T1, Bleomycin hydrolase; assay: (§1) Substrate activity at recombinant human BLMH expressed in baculovirus infected Sf9 insect cells assessed as Kcat to Km ratio
[3] = target: T1, Bleomycin hydrolase; assay: (§2) Substrate activity at recombinant human N-terminal His6-tagged BLMH expressed in Escherichia coli BL21(DE3) measured after 1 hr by HPLC-based Michaelis-Menten plot analysis
[4] = target: T1, Bleomycin hydrolase; assay: Substrate activity at recombinant human N-terminal His6-tagged BLMH expressed in Escherichia coli BL21(DE3) assessed as Kcat to Km ratio measured after 1 hr by HPLC-based Michaelis-Menten plot analysis
[5] = substrate: Cc1c(N)nc([C@H](CC(N)=O)NC[C@H](N)C(N)=O)nc1C(=O)N[C@H](C(=O)N[C@H](C)[C@@H](O)[C@H](C)C(=O)N[C@H](C(=O)NCCc1nc(-c2nc(C(=O)NCCCCNC(=N)N)cs2)cs1)[C@@H](C)O)[C@@H](O[C@@H]1O[C@@H](CO)[C@@H](O)[C@H](O)[C@@H]1O[C@H]1O[C@H](CO)[C@@H](O)[C@H](OC(N)=O)[C@@H]1O)c1c[nH]cn1; assay: as §2
[6] = substrate: [H][C@]1(O[C@@H]2[C@H](O[C@@H](c3c[nH]cn3)[C@H](NC(=O)c3nc([C@H](CC(N)=O)NC[C@H](N)C(N)=O)nc(N)c3C)C(=O)N[C@H](C)[C@@H](O)CC(=O)N[C@H](C(=O)NCCc3nc(-c4nc(C(=O)NCCCC(N)CC(=O)NCCCNCCCCN)cs4)cs3)[C@@H](C)O)O[C@@H](CO)[C@@H](O)[C@@H]2O)O[C@H](CO)[C@@H](O)[C@H](OC(N)=O)[C@@H]1O; assay: as §2
[7] = substrate: [H][C@]1(O[C@@H]2[C@H](O[C@@H](c3c[nH]cn3)[C@H](NC(=O)c3nc([C@H](CC(N)=O)NC[C@H](N)C(N)=O)nc(N)c3C)C(=O)N[C@H](C)[C@@H](O)CC(=O)N[C@H](C(=O)NCCc3nc(-c4nc(C(=O)NCCCC(N)CC(=O)NCCCNCCCCN)cs4)cs3)[C@@H](C)O)O[C@@H](C)[C@@H](O)[C@@H]2O)O[C@H](CO)[C@@H](O)[C@H](OC(N)=O)[C@@H]1O; assay: as §2
[8] = substrate: [H][C@]1(O[C@@H]2[C@H](O[C@@H](c3c[nH]cn3)[C@H](NC(=O)c3nc([C@H](CC(N)=O)NC[C@H](N)C(N)=O)nc(N)c3C)C(=O)N[C@H](C)[C@@H](O)[C@H](C)C(=O)N[C@H](C(=O)NCCc3nc(-c4nc(C(=O)NCCC(=N)N)cs4)cs3)[C@@H](C)O)O[C@@H](CO)[C@@H](O)[C@@H]2O)O[C@H](CO)[C@@H](O)[C@H](OC(N)=O)[C@@H]1O; assay: as §2
[9] = substrate: [H][C@]1(O[C@@H]2[C@H](O[C@@H](c3c[nH]cn3)[C@H](NC(=O)c3nc([C@H](CC(N)=O)NC[C@H](N)C(N)=O)nc(N)c3C)C(=O)N[C@H](C)[C@@H](O)[C@H](C)C(=O)N[C@H](C(=O)NCCc3nc(-c4nc(C(=O)NCCC[S+](C)C)cs4)cs3)[C@@H](C)O)O[C@@H](C)[C@@H](O)[C@@H]2O)O[C@H](CO)[C@@H](O)[C@H](OC(N)=O)[C@@H]1O; assay: as §2
[10] = substrate: [H][C@]1(O[C@@H]2[C@H](O[C@@H](c3c[nH]cn3)[C@H](NC(=O)c3nc([C@H](CC(N)=O)NC[C@H](N)C(N)=O)nc(N)c3C)C(=O)N[C@H](C)[C@@H](O)[C@H](C)C(=O)N[C@H](C(=O)NCCc3nc(-c4nc(C(=O)NCCC(=N)N)cs4)cs3)[C@@H](C)O)O[C@@H](C)[C@@H](O)[C@@H]2O)O[C@H](CO)[C@@H](O)[C@H](OC(N)=O)[C@@H]1O; assay: as §2
[11] = substrate: Cc1c(N)nc([C@H](CC(N)=O)NC[C@H](N)C(N)=O)nc1C(=O)N[C@H](C(=O)N[C@H](C)[C@@H](O)[C@H](C)C(=O)N[C@H](C(=O)NCCc1nc(-c2nc(C(=O)NCCCCNC(=N)N)cs2)cs1)[C@@H](C)O)[C@@H](O[C@@H]1O[C@@H](CO)[C@@H](O)[C@H](O)[C@@H]1O[C@H]1O[C@H](CO)[C@@H](O)[C@H](OC(N)=O)[C@@H]1O)c1c[nH]cn1; assay: as §1

## Cc1c(N)nc([C@H](CC(N)=O)NC[C@H](N)C(N)=O)nc1C(=O)N[C@H](C(=O)N[C@H](C)[C@@H](O)CC(=O)N[C@H](C(=O)NCCc1nc(-c2nc(C(=O)NCCCC(N)CC(=O)NCCCNCCCCN)cs2)cs1)[C@@H](C)O)[C@@H](O[C@@H]1O[C@@H](CO)[C@@H](O)[C@H](O)[C@@H]1O[C@H]1O[C@H](CO)[C@@H](O)[C@H](OC(N)=O)[C@@H]1O)c1c[nH]cn1 (stereo partly drawn)
[1]
  fold change (FC): 0.06

## Cc1c(N)nc([C@H](CC(N)=O)NC[C@H](N)C(N)=O)nc1C(=O)N[C@H](C(=O)N[C@H](C)[C@@H](O)[C@H](C)C(=O)N[C@H](C(=O)NCCc1nc(-c2nc(C(=O)NCCC(=N)N)cs2)cs1)[C@@H](C)O)[C@@H](O[C@@H]1O[C@@H](C)[C@@H](O)[C@H](O)[C@@H]1O[C@H]1O[C@H](CO)[C@@H](O)[C@H](OC(N)=O)[C@@H]1O)c1c[nH]cn1
[1]
  fold change (FC): 0.28

## Cc1c(N)nc([C@H](CC(N)=O)NC[C@H](N)C(N)=O)nc1C(=O)N[C@H](C(=O)N[C@H](C)[C@@H](O)[C@H](C)C(=O)N[C@H](C(=O)NCCc1nc(-c2nc(C(=O)NCCC[S+](C)C)cs2)cs1)[C@@H](C)O)[C@@H](O[C@@H]1O[C@@H](C)[C@@H](O)[C@H](O)[C@@H]1O[C@H]1O[C@H](CO)[C@@H](O)[C@H](OC(N)=O)[C@@H]1O)c1c[nH]cn1
[1]
  fold change (FC): 0.11

## BLEOMYCIN
[1]
  fold change (FC): 0.12
[2]
  Kcat/Km: 0.005 s⁻¹ µM⁻¹
[3]
  Kcat: 4 s⁻¹
  Km: 592 µM
[4]
  Kcat/Km: 6.7 ×10⁻³ /microM/s

## Cc1c(N)nc([C@H](CC(N)=O)NC[C@H](N)C(N)=O)nc1C(=O)N[C@H](C(=O)N[C@H](C)[C@@H](O)CC(=O)N[C@H](C(=O)NCCc1nc(-c2nc(C(=O)NCCCC(N)CC(=O)NCCCNCCCCN)cs2)cs1)[C@@H](C)O)[C@@H](O[C@@H]1O[C@@H](C)[C@@H](O)[C@H](O)[C@@H]1O[C@H]1O[C@H](CO)[C@@H](O)[C@H](OC(N)=O)[C@@H]1O)c1c[nH]cn1 (stereo partly drawn)
[1]
  fold change (FC): 0.06

## Cc1c(N)nc([C@H](CC(N)=O)NC[C@H](N)C(N)=O)nc1C(=O)N[C@H](C(=O)N[C@H](C)[C@@H](O)[C@H](C)C(=O)N[C@H](C(=O)NCCc1nc(-c2nc(C(=O)NCCC(=N)N)cs2)cs1)[C@@H](C)O)[C@@H](O[C@@H]1O[C@@H](CO)[C@@H](O)[C@H](O)[C@@H]1O[C@H]1O[C@H](CO)[C@@H](O)[C@H](OC(N)=O)[C@@H]1O)c1c[nH]cn1
[1]
  fold change (FC): 0.19

B1: Bleomycin hydrolase (Homo sapiens) (protein)
chain: MSSSGLNSEKVAALIQKLNSDPQFVLAQNVGTTHDLLDICLKRATVQRAQHVFQHAVPQEGKPITNQKSSGRCWIFSCLNVMRLPFMKKLNIEEFEFSQSYLFFWDKVERCYFFLSAFVDTAQRKEPEDGRLVQFLLMNPANDGGQWDMLVNIVEKYGVIPKKCFPESYTTEATRRMNDILNHKMREFCIRLRNLVHSGATKGEISATQDVMMEEIFRVVCICLGNPPETFTWEYRDKDKNYQKIGPITPLEFYREHVKPLFNMEDKICLVNDPRPQHKYNKLYTVEYLSNMVGGRKTLYNNQPIDFLKKMVAASIKDGEAVWFGCDVGKHFNSKLGLSDMNLYDHELVFGVSLKNMNKAERLTFGESLMTHAMTFTAVSEKDDQDGAFTKWRVENSWGEDHGHKGYLCMTDEWFSEYVYEVVVDRKHVPEEVLAVLEQEPIILPAWDPMGALAE
[5]
  Km: 190 µM
  kcat: 11 s⁻¹
[6]
  Km: 743 µM
  kcat: 2.4 s⁻¹
  kcat/Km: 3200 M⁻¹ s⁻¹
[7]
  Km: 720 µM
  kcat: 2.5 s⁻¹
  kcat/Km: 3500 M⁻¹ s⁻¹
[8]
  Km: 854 µM
  kcat: 9.8 s⁻¹
  kcat/Km: 11000 M⁻¹ s⁻¹
[9]
  Km: 805 µM
  kcat: 4.9 s⁻¹
  kcat/Km: 6100 M⁻¹ s⁻¹
[10]
  Km: 942 µM
  kcat: 15 s⁻¹
  kcat/Km: 16000 M⁻¹ s⁻¹
[11]
  kcat/Km: 12000 M⁻¹ s⁻¹
